Source: paper doi:10.1101/2025.03.31.646301, “Discovery of Tankyrase scaffolding inhibitor specifically targeting the ARC4 peptide binding domain” (bioRxiv, 2025)
Ends that are not written are not given here.

Biological target: T1, TNKS2 ARC4 fused with mCerulean (CFP) (human, UniProt Q9H2K2 488-649)
T1 construct: Tankyrase 2 (TNKS2), human, ankyrin repeat cluster 4 (ARC4); residues 487-649 are stated only for the crystallised TNKS2 ARC4; Vector pNIC-CFP: mCerulean inserted between the 6xHis-tag and the TEV site of pNIC28-Bsa4; the label reads CFP first, so the tags are probably N-terminal; also called CFP-TNKS2 ARC4; source: E. coli BL21(DE3), purified (IMAC, SEC)
T1 sequence: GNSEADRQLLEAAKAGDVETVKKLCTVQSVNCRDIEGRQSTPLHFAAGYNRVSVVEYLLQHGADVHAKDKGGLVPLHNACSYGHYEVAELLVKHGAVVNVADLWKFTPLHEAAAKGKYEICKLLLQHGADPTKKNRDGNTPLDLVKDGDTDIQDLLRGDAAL
Test: FRET or BRET; ratiometric FRET in solution: CFP-TNKS1/2 ARC 100 nM and YFP-REAGDGEE 200 nM, 10 mM Bis-Tris Propane pH 7, 3% PEG 20000, 0.01% Triton X-100, 0.5 mM TCEP; small-molecule compounds added (screen at 30 uM, dose response); 1 M guanidine hydrochloride as control of total inhibition
Settings: both partners purified

- binding result: binds
B1: 8-residues peptide optimized for the binding of ARCs (REAGDGEE) fused with mCitrine (YFP) (peptide)
chain: REAGDGEE
modifications: also: fused with mCitrine (YFP)
notes: Vector pNIC-YFP: mCitrine inserted between the 6xHis-tag and the TEV site of pNIC28-Bsa4; the label reads YFP first, so the peptide probably stands at the C-terminal end of the fusion; also called optimized peptide; source: E. coli BL21(DE3), purified (IMAC, SEC)
